{"source": "the RNAGym collection of RNA variant scans (doi:10.1021/acssynbio.7b00057)", "parents": {"B1": {"name": "Pistol ribozyme (parent)", "chain": "GGGUCGUUGUUCCAUAAUCGCGUGGAUAUGGCACGCAAGUUUCUACCGGGCACCGUAAAUGUCCGACUGGAGCCGUUCGGGCGGCUAUAAACAGACCUCAGGCCCGAAGCGUGGCGGCACCUGCCGCCGGUGGUAAAAAAGAUCGGAAGAGCACACGUCU"}}, "data": [{"variants_of": "B1", "assay": "aptazyme ON/OFF ratio, guanine; higher = stronger switching; co-transcriptional cleavage with and without guanine", "values": [{"variant": "U7A U8G G9A U10G U11G C13A", "aptazyme ON/OFF ratio": 1.06}, {"variant": "U7A U8G G9A U10G U11C C12G C13A", "aptazyme ON/OFF ratio": 1.4}, {"variant": "U7A U8G G9A U10G U11C C12G C13G", "aptazyme ON/OFF ratio": 1.23}, {"variant": "U7A U8G G9A U10G U11C C12G C13U", "aptazyme ON/OFF ratio": 1.22}, {"variant": "U7A U8G G9A U11A", "aptazyme ON/OFF ratio": 1.7}, {"variant": "U7A U8G G9A U11C", "aptazyme ON/OFF ratio": 1.33}, {"variant": "U7A U8G G9A U11G", "aptazyme ON/OFF ratio": 1.64}, {"variant": "U7A U8G G9A U10A U11G C12U", "aptazyme ON/OFF ratio": 1.14}, {"variant": "U7A U8G G9A U10A U11G C12G", "aptazyme ON/OFF ratio": 1.26}, {"variant": "U7A U8G G9A U10A U11G C12A", "aptazyme ON/OFF ratio": 1.08}, {"variant": "U7A U8G G9C U10A C12G C13U", "aptazyme ON/OFF ratio": 1.28}, {"variant": "U7A U8G G9C U10A C12G C13G", "aptazyme ON/OFF ratio": 1.28}, {"variant": "U7A U8G G9C U10A C12G C13A", "aptazyme ON/OFF ratio": 1.25}, {"variant": "U7A U8G G9C U10A U11A C12U", "aptazyme ON/OFF ratio": 1.44}, {"variant": "U7A U8G G9C U10A U11A C12G", "aptazyme ON/OFF ratio": 1.36}, {"variant": "U7A U8G G9C U10A U11A C12A", "aptazyme ON/OFF ratio": 1.5}, {"variant": "U7A U8G G9A U10A U11A C12U", "aptazyme ON/OFF ratio": 1.31}, {"variant": "U7A U8G G9A U10A U11A C12A", "aptazyme ON/OFF ratio": 1.45}, {"variant": "U7A U8G G9A U10A U11A C12G", "aptazyme ON/OFF ratio": 1.46}, {"variant": "U7A U8G G9A U10A U11A C12A C13G", "aptazyme ON/OFF ratio": 1.13}, {"variant": "U7A U8G G9A U10A U11A C12A C13A", "aptazyme ON/OFF ratio": 1.3}, {"variant": "U7A U8G G9A U10A U11A C12A C13U", "aptazyme ON/OFF ratio": 1.29}, {"variant": "U7A U8G G9C U10A U11C C12G C13A", "aptazyme ON/OFF ratio": 1.27}, {"variant": "U7A U8G G9C U10A U11C C12G C13U", "aptazyme ON/OFF ratio": 1.26}, {"variant": "U7A U8G G9C U10A U11C C12G C13G", "aptazyme ON/OFF ratio": 1.17}, {"variant": "U7A U8G G9A U10A C13G", "aptazyme ON/OFF ratio": 1.18}, {"variant": "U7A U8G G9A U10A C13U", "aptazyme ON/OFF ratio": 1.26}, {"variant": "U7A U8G G9A U10A C13A", "aptazyme ON/OFF ratio": 1.41}, {"variant": "U7A U8G G9A C12A", "aptazyme ON/OFF ratio": 1.69}, {"variant": "U7A U8G G9A C12U", "aptazyme ON/OFF ratio": 1.63}, {"variant": "U7A U8G G9A C12G", "aptazyme ON/OFF ratio": 1.79}, {"variant": "U7A U8G G9A U10C U11A C12G C13U", "aptazyme ON/OFF ratio": 1.22}, {"variant": "U7A U8G G9A U10C U11A C12G C13A", "aptazyme ON/OFF ratio": 1.04}, {"variant": "U7A U8G G9A U10C U11A C12G C13G", "aptazyme ON/OFF ratio": 1.13}, {"variant": "U7A U8G G9A U11C C12U C13U", "aptazyme ON/OFF ratio": 1.46}, {"variant": "U7A U8G G9A U11C C12U C13G", "aptazyme ON/OFF ratio": 0.973}, {"variant": "U7A U8G G9A U11C C12U C13A", "aptazyme ON/OFF ratio": 1.07}, {"variant": "U7A U8G G9A U10G U11C C13A", "aptazyme ON/OFF ratio": 1.12}, {"variant": "U7A U8G G9A U10G U11C C13U", "aptazyme ON/OFF ratio": 1.06}, {"variant": "U7A U8G G9A U10G U11C C13G", "aptazyme ON/OFF ratio": 1.1}, {"variant": "U7A U8G G9A U10A U11G C12A C13U", "aptazyme ON/OFF ratio": 1.4}, {"variant": "U7A U8G G9A U10A U11G C12A C13A", "aptazyme ON/OFF ratio": 1.1}, {"variant": "U7A U8G G9A U10A U11G C12A C13G", "aptazyme ON/OFF ratio": 1.37}, {"variant": "U7A U8G G9A U10G U11G C12G C13U", "aptazyme ON/OFF ratio": 1.53}, {"variant": "U7A U8G G9A U10G U11G C12G C13A", "aptazyme ON/OFF ratio": 0.971}, {"variant": "U7A U8G G9A U10G U11G C12G C13G", "aptazyme ON/OFF ratio": 1.68}, {"variant": "U7A U8G G9C U10A U11A", "aptazyme ON/OFF ratio": 1.89}, {"variant": "U7A U8G G9C U10A U11C", "aptazyme ON/OFF ratio": 1.04}, {"variant": "U7A U8G G9C U10A U11G", "aptazyme ON/OFF ratio": 1.9}, {"variant": "U7A U8G G9A U11G C13G", "aptazyme ON/OFF ratio": 1.16}, {"variant": "U7A U8G G9A U11G C13U", "aptazyme ON/OFF ratio": 1.4}, {"variant": "U7A U8G G9A U11G C13A", "aptazyme ON/OFF ratio": 1.39}, {"variant": "U7A U8G G9C U10A C12U", "aptazyme ON/OFF ratio": 1.36}, {"variant": "U7A U8G G9C U10A C12A", "aptazyme ON/OFF ratio": 1.4}, {"variant": "U7A U8G G9C U10A C12G", "aptazyme ON/OFF ratio": 1.43}, {"variant": "U7A U8G G9C U10A U11C C12A C13G", "aptazyme ON/OFF ratio": 1.28}, {"variant": "U7A U8G G9C U10A U11C C12A C13U", "aptazyme ON/OFF ratio": 1.5}, {"variant": "U7A U8G G9C U10A U11C C12A C13A", "aptazyme ON/OFF ratio": 1.17}, {"variant": "U7A U8G G9C C12U", "aptazyme ON/OFF ratio": 1.88}, {"variant": "U7A U8G G9C C12A", "aptazyme ON/OFF ratio": 1.78}, {"variant": "U7A U8G G9C C12G", "aptazyme ON/OFF ratio": 1.29}, {"variant": "U7A U8G G9A U11A C12G C13G", "aptazyme ON/OFF ratio": 1.33}, {"variant": "U7A U8G G9A U11A C12G C13U", "aptazyme ON/OFF ratio": 1.25}, {"variant": "U7A U8G G9A U11A C12G C13A", "aptazyme ON/OFF ratio": 1.19}, {"variant": "U7A U8G G9A U10C U11C C12G C13A", "aptazyme ON/OFF ratio": 1.11}, {"variant": "U7A U8G G9A U10C U11C C12G C13U", "aptazyme ON/OFF ratio": 1.04}, {"variant": "U7A U8G G9A U10C U11C C12G C13G", "aptazyme ON/OFF ratio": 1.09}, {"variant": "U7A U8G G9A U10A U11G C12U C13A", "aptazyme ON/OFF ratio": 1}, {"variant": "U7A U8G G9A U10A U11G C12U C13U", "aptazyme ON/OFF ratio": 1.33}, {"variant": "U7A U8G G9A U10A U11G C12U C13G", "aptazyme ON/OFF ratio": 1.52}, {"variant": "U7A U8G G9A", "aptazyme ON/OFF ratio": 3.13}, {"variant": "U7A U8G G9C", "aptazyme ON/OFF ratio": 1.97}, {"variant": "U7A U8G G9A U10A U11C C13G", "aptazyme ON/OFF ratio": 1.04}, {"variant": "U7A U8G G9A U10A U11C C13A", "aptazyme ON/OFF ratio": 1.05}, {"variant": "U7A U8G G9A U10A U11C C13U", "aptazyme ON/OFF ratio": 1.04}, {"variant": "U7A U8G G9A U11G C12A C13A", "aptazyme ON/OFF ratio": 1.16}, {"variant": "U7A U8G G9A U11G C12A C13U", "aptazyme ON/OFF ratio": 1.07}, {"variant": "U7A U8G G9A U11G C12A C13G", "aptazyme ON/OFF ratio": 1.39}, {"variant": "U7A U8G G9A C13A", "aptazyme ON/OFF ratio": 1.39}, {"variant": "U7A U8G G9A C13U", "aptazyme ON/OFF ratio": 1.39}, {"variant": "U7A U8G G9A C13G", "aptazyme ON/OFF ratio": 1.18}, {"variant": "U7A U8G G9A U10C U11A C12U C13G", "aptazyme ON/OFF ratio": 1.06}, {"variant": "U7A U8G G9A U10C U11A C12U C13A", "aptazyme ON/OFF ratio": 1.11}, {"variant": "U7A U8G G9A U10C U11A C12U C13U", "aptazyme ON/OFF ratio": 1.1}]}]}
